Measurements as given in publication PMC9481740 (The Journal of Cell Biology, 2022).
Substitutions are numbered along the chain they refer to.

B1: GST-LIC2 (natural protein, human, UniProt O43237 1-492, looked up)
chain: MAPVGVEKKLLLGPNGPAVAAAGDLTSEEEEGQSLWSSILSEVSTRARSKLPSGKNILVFGEDGSGKTTLMTKLQGAEHGKKGRGLEYLYLSVHDEDRDDHTRCNVWILDGDLYHKGLLKFAVSAESLPETLVIFVADMSRPWTVMESLQKWASVLREHIDKMKIPPEKMRELERKFVKDFQDYMEPEEGCQGSPQRRGPLTSGSDEENVALPLGDNVLTHNLGIPVLVVCTKCDAVSVLEKEHDYRDEHLDFIQSHLRRFCLQYGAALIYTSVKEEKNLDLLYKYIVHKTYGFHFTTPALVVEKDAVFIPAGWDNEKKIAILHENFTTVKPEDAYEDFIVKPPVRKLVHDKELAAEDEQVFLMKQQSLLAKQPATPTRASESPARGPSGSPRTQGRGGPASVPSSSPGTSVKKPDPNIKNNAASEGVLASFFNSLLSKKTGSPGSPGAGGVQSTAKKSGQKTVLSNVQEELDRMTRKPDSMVTNSSTENEA
notes: Dynein light intermediate chain 2 (LIC2), human; GST is TEV-cleavable but was used as the handle on glutathione beads; also called GST-tagged LIC2; source: TnAO38 insect cells (baculovirus), purified (GSTrap, Superdex 200); not shown: GST, N-terminal, kept
B2: pre-farnesylated ^mChSpindly^CC2* (natural protein, human, UniProt Q96EA4 1-605, looked up)
chain: MEADIITNLRCRLKEAEEERLKAAQYGLQLVESQNELQNQLDKCRNEMMTMTESYEQEKYTLQREVELKSRMLESLSCECEAIKQQQKMHLEKLEEQLSRSHGQEVNELKTKIEKLKVELDEARLSEKQLKHQVDHQKELLSCKSEELRVMSERVQESMSSEMLALQIELTEMESMKTTLKEEVNELQYRQEQLELLITNLMRQVDRLKEEKEEREKEAVSYYNALEKARVANQDLQVQLDQALQQALDPNSKGNSLFAEVEDRRAAMERQLISMKVKYQSLKKQNVFNREQMQEMELQIATLLQMKGSQTEFEQQERLLAMLEQKNGEIKHLLGEIRNLEKFKNLYDSMESKPSVDSGTLEDNTYYTDLLQMKLDNLNKEIESTKGELSIQRMKALFESQRALDIERKLFANERCLQLSESENMKLRAKLDELKLKYEPEETVEVPVLKKRREVLPVDITTAKDACVNNSALGGEVYRLPPQKEETQSCPNSLEDNNLQLEKSVSIYTPVVSLSPHKNLPVDMQLKKEKKCVKLIGVPADAEALSERSGNTPNSPRLAAESKLQTEVKEGKETSSKLEKETCKKLHPILYVSSKSTPETQCPQQ
modifications: farnesylated (residue not given)
notes: source: E. coli BL21 CodonPlus, purified; farnesylated in vitro with farnesyltransferase; not shown: mCherry, N-terminal, kept

Key:
Settings in all cases: both partners purified
[1] = molecular target: T1, mCherry-tagged full-length Spindly (^mChSpindly^FL) (human, UniProt Q96EA4 1-605); assay: pull-down; GST or GST-LIC2 bait 4 µM on glutathione beads, mCh-Spindly preys 8 µM, 4°C 1 h, Spindly buffer; eluted with glutathione; mCherry fluorescence of the gel band quantified against Spindly FL
T1 construct: also called ^mChSpindly^WT; Spindly^WT; source: E. coli BL21 CodonPlus, purified (HisTrap, Resource Q, Superdex 200); not shown: mCherry, N-terminal, kept
T1 sequence (looked up): B2 chain with E295R, E297K

^mChSpindly^ΔRV = molecular target: T2, ^mChSpindly^ΔRV (human, UniProt Q96EA4 1-605, ΔRV (residues R154–V155)); assay: as above
T2 construct: also called ^mChSpindly^∆RV; source: E. coli BL21 CodonPlus, purified (HisTrap, Resource Q, Superdex 200); not shown: mCherry, N-terminal, kept
T2 sequence (looked up): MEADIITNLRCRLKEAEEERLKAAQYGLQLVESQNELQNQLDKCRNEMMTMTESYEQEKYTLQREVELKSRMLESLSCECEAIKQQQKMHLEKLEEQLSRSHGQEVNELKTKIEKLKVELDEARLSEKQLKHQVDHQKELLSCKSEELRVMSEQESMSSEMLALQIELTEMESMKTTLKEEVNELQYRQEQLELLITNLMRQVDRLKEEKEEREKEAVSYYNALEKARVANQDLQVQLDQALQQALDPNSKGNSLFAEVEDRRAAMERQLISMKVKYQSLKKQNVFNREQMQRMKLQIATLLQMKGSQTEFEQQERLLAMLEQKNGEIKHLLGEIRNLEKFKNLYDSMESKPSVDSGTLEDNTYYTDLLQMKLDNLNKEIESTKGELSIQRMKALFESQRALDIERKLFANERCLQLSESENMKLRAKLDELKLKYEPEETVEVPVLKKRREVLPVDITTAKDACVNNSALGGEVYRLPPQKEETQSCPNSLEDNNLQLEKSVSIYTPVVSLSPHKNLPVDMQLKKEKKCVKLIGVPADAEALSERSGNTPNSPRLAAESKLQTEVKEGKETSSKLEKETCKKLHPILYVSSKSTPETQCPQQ

[2] = molecular target: T3, ^mChSpindly^CC2* (R295E-K297E) (human, UniProt Q96EA4 1-605, R295E | K297E); assay: as above
T3 construct: source: E. coli BL21 CodonPlus, purified (HisTrap, Resource Q, Superdex 200); not shown: mCherry, N-terminal, kept
T3 sequence (looked up): B2 chain

[3] = molecular target: T4, ROD–Zwilch–ZW10 (RZZ) complex (UniProt P50748 1-2209; Q9H900 1-591; O43264 1-779); assay: SEC; Superose 6 5/150; RZZ 2 µM, pre-farnesylated mCh-Spindly construct 6 µM
T4 construct: ROD; Zwilch; ZW10; also called mCherry-RZZ; copies: + +
T4 sequence (P50748 whole entry, chain 1 of 3): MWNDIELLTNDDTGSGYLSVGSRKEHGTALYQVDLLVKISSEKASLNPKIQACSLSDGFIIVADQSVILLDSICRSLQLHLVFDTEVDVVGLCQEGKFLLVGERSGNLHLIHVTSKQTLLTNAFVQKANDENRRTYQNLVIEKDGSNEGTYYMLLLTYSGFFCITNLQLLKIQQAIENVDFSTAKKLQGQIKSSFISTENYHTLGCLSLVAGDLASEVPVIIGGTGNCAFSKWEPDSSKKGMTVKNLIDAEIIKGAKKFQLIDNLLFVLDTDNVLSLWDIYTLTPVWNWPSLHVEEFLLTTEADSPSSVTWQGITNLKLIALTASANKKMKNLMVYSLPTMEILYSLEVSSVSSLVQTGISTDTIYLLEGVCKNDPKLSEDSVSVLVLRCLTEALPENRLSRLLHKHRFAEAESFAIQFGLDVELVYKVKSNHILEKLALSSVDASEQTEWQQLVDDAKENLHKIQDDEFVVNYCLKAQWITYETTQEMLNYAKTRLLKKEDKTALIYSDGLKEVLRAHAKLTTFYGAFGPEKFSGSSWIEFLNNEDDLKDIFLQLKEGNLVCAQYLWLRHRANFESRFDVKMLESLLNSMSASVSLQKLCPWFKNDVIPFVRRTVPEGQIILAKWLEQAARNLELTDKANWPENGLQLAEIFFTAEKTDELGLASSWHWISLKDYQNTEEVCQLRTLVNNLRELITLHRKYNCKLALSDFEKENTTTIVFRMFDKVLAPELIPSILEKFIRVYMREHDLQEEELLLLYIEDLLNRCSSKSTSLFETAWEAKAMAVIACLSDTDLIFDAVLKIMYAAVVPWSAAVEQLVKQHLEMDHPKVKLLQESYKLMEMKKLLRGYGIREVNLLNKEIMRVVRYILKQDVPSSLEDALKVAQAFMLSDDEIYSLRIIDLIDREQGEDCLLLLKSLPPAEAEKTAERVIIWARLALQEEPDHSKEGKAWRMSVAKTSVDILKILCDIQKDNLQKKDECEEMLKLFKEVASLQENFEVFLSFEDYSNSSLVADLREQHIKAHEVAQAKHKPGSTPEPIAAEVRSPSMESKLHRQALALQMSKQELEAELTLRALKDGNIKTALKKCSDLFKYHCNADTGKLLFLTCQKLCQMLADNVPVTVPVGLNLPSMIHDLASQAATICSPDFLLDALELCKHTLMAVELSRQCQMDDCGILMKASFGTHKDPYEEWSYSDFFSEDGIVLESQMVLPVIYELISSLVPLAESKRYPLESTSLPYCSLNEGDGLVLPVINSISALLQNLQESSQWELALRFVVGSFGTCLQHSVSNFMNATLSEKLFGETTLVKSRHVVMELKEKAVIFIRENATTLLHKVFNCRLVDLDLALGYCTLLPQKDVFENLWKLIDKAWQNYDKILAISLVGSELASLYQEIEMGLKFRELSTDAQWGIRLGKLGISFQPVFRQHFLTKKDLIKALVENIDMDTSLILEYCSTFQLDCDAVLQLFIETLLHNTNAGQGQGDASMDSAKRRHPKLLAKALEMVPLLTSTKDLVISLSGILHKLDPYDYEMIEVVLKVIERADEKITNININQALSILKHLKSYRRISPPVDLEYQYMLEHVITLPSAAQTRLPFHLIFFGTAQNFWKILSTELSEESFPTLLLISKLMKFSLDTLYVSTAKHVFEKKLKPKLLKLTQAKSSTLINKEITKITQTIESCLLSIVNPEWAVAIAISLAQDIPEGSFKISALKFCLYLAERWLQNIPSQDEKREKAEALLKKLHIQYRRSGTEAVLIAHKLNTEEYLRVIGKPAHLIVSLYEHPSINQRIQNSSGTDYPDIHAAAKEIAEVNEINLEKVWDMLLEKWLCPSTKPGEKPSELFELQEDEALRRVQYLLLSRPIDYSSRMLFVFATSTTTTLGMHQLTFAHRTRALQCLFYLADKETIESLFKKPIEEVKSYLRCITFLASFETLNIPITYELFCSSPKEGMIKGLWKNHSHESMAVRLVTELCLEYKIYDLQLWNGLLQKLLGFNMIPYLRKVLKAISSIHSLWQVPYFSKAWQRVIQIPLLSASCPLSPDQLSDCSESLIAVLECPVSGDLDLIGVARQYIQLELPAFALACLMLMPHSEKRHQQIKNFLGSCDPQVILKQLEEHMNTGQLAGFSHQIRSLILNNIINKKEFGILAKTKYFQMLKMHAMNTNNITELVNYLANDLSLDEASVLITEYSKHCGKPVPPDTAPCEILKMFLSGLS
T4 sequence (Q9H900 whole entry, chain 2 of 3): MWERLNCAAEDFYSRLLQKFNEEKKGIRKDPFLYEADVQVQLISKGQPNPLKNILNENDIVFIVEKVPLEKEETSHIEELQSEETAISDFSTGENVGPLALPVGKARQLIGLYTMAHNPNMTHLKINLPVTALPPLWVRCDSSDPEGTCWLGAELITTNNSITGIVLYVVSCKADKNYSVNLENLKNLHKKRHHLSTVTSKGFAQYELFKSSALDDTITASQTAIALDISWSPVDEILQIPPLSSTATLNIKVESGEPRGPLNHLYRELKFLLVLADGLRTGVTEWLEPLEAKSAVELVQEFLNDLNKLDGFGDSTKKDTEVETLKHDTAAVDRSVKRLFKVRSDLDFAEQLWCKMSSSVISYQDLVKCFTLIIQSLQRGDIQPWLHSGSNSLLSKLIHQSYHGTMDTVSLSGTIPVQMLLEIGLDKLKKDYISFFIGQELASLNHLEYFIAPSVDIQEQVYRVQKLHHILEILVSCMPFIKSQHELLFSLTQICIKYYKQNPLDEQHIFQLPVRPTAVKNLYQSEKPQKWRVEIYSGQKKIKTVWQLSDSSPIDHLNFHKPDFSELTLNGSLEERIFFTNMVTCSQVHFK
T4 sequence (O43264 whole entry, chain 3 of 3): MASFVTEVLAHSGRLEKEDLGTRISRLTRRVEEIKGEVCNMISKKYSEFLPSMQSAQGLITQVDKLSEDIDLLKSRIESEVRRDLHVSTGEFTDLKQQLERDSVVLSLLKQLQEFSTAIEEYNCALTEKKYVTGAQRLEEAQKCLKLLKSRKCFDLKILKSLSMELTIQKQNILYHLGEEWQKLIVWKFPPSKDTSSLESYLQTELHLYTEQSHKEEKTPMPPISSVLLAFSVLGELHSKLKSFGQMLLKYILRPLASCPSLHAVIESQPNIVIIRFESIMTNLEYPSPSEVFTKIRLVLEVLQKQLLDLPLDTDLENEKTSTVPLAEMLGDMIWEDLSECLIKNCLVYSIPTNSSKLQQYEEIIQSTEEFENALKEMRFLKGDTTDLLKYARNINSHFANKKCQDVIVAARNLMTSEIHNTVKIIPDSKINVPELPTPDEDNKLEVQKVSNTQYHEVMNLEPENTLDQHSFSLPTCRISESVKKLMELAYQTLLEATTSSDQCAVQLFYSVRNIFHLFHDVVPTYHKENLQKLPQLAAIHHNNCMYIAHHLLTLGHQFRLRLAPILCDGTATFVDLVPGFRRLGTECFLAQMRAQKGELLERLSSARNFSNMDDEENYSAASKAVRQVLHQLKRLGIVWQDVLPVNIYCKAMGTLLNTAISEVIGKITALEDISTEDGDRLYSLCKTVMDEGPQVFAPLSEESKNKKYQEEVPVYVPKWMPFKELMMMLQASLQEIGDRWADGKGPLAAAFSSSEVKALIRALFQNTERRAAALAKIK

| Binder | binding result [1] | binding result (^mChSpindly^ΔRV) | binding result [2] | binding result [3] |
| --- | --- | --- | --- | --- |
| B1 | binds | binds | binds |  |
| B2 |  |  |  | binds |
